Numbered stars: 1 amine (or outer) side, 2 acyl side, 3 side chain; on linkers, the order of the positions; unused ones are H or OH. Side chains are listed from the residue outwards. * marks the point of attachment. C18 diacid = O=C(O)CCCCCCCCCCCCCCCCC(=O)*; γGlu = O=C(O)[C@H](CCC(=O)[*:2])N[*:1]; Isovaleryl = CC(C)CC(=O)*; AEEA = NCCOCCOCC(=O)O
Legend:
[1] = target: human Y4 receptor (P50391, NPY4R_HUMAN, Uniprot) (human) (UniProt P50391); assay: ratio of SPA values, Y2 as reference
[2] = target: T1, human Y1 receptor (P25929, NPY1R_HUMAN, Uniprot) (human, UniProt P25929 1-384); assay: SPA vs [125I]-PYY(1-36)
T1 construct: whole, on cells; Assayed as membrane preparations of the expressing cells; also called NPY-Y1 receptor
T1 sequence (looked up): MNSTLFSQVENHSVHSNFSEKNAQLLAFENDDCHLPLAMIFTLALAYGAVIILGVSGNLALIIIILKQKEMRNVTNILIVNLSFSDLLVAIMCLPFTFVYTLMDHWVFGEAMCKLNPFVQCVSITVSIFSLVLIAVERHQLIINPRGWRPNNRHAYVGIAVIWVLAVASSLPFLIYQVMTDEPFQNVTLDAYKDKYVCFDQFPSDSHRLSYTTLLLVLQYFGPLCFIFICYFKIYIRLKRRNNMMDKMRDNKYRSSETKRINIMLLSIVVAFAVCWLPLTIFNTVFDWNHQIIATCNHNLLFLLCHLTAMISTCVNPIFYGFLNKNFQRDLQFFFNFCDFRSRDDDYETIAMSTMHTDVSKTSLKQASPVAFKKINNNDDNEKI
Protocol: (§1) Human Y receptor SPA binding assay were performed in white 96-well plates in a total volume of 200 μl per well.
(§2) Plates were sealed and incubated at +25° C. for 2 hours in a plate shaker set at 400 rpm and thereafter centrifuged at 1500 rpm for 10 minutes prior to reading of luminescence on a microplate scintillation and luminescence counter.

[3] = target: T2, human Y4 receptor (P50391, NPY4R_HUMAN, Uniprot) (human, UniProt P50391 1-375); assay: SPA vs [125I]-PP
T2 construct: whole, on cells; Assayed as membrane preparations of the expressing cells
Protocol: as §1, §2

[4] = target: T3, human Y5 receptor (Q15761, NPY5R_HUMAN, Uniprot) (human, UniProt Q15761 1-445); assay: ratio of SPA values, Y2 as reference
T3 construct: whole, on cells; Assayed as membrane preparations of the expressing cells
T3 sequence (looked up): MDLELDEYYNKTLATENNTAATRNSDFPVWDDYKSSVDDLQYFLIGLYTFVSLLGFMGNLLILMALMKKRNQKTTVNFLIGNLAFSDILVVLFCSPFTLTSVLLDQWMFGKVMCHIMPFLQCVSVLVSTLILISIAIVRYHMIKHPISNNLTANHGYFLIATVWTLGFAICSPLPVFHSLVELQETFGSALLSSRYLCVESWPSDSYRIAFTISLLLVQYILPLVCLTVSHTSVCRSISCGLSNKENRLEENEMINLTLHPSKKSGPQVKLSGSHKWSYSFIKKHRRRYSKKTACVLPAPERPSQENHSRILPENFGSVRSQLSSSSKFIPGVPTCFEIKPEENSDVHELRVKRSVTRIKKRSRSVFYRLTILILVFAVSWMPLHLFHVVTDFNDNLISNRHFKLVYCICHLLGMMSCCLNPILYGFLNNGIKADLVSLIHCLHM
Protocol: as §1, §2

[5] = target: T2, human Y4 receptor (P50391, NPY4R_HUMAN, …); assay: ratio of SPA values, Y2 as reference
Protocol: as §1, §2

[6] = target: T4, human Y2 receptor (P49146, NPY2R_HUMAN, Uniprot) (human, UniProt P49146 1-381); assay: SPA vs [125I]-PYY(1-36)
T4 construct: whole, on cells; also called human NPY Y2 receptor
T4 sequence (looked up): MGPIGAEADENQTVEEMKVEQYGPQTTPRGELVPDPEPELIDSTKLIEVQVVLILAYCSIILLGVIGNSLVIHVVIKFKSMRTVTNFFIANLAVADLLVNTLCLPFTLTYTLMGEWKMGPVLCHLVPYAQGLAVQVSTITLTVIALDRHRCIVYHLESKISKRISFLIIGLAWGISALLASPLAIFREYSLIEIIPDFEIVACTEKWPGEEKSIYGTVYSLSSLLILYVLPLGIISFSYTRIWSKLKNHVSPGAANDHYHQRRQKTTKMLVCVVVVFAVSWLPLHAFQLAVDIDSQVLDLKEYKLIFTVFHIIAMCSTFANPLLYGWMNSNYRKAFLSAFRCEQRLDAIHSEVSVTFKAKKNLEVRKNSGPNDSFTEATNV
Protocol: as §1, §2

[7] = target: T3, human Y5 receptor (Q15761, NPY5R_HUMAN, …); assay: SPA vs [125I]-PYY(1-36)
Protocol: as §1, §2

[8] = target: T4, human Y2 receptor (P49146, NPY2R_HUMAN, …); assay: cell-based or functional assay

T2 sequence (P50391 whole entry): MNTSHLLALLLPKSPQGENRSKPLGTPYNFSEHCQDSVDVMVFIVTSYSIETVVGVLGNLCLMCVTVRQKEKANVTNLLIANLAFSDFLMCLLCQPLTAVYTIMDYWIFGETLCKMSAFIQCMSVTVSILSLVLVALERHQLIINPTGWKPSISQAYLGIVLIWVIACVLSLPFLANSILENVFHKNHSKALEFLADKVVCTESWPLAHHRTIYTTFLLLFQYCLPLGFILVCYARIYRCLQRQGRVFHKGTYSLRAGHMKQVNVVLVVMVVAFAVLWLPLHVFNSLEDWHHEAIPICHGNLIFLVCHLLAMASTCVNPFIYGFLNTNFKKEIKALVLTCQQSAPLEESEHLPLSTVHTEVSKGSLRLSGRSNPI
human Y4 receptor (P50391, NPY4R_HUMAN, Uniprot) (human), sequence (P50391 whole entry): as above

## N{alpha-4}-(3-Methylbutanoyl)-N{Epsilon-7}-[2-[2-[2-[[2-[2-[2-[[2-[2-[2-[[2-[2-[2-[[(4S)-4-carboxy-4-(17-carboxyheptadecanoylamino)butanoyl]amino]-ethoxy]ethoxy]acetyl]amino]ethoxy]ethoxy]acetyl]amino]ethoxy]ethoxy]acetyl]amino]ethoxy]ethoxy]acetyl]-[Arg4,Lys7,Pro9,Gln18,Tyr28,Trp30,Leu31]-PYY(4-36) (peptide)
[1]
  Ratio of Y4/Y2 SPA binding values: > 18300

B1: N{alpha-4}-(3-Methylbutanoyl)-N{Epsilon-7}-[2-[2-[2-[[2-[2-[2-[[(4S)-4-carboxy-4-(17-carboxyheptadecanoylamino)butanoyl]amino]ethoxy]ethoxy]acetyl]amino]-ethoxy … (peptide)
peptide: RPEKPTEDASPEELQRYYASLRHYYNWLTRQRY
modifications: N-terminal alpha-amino (position 4): 3-methylbutanoyl; Lys7 (hPYY(1-36) numbering) epsilon-amino: [2-[2-[2-[[2-[2-[2-[[(4S)-4-carboxy-4-(17-carboxyheptadecanoylamino)butanoyl]amino]ethoxy]ethoxy]acetyl]amino]ethoxy]ethoxy]acetyl]; C-terminal amide
notes: also called Compound 14; 14
[2]
  Ki: 8820 nM

B2: N{alpha-4}-(3-Methylbutanoyl)-N{Epsilon-10}-[(4S)-4-carboxy-4-[[2-[2-[2-[[(4S)-4-carboxy-4-(17-carboxyheptadecanoylamino)butanoyl]amino]ethoxy]ethoxy]-acetyl]am … (peptide)
peptide: Isovaleryl-RPEAPPK([γGlu-AEEA-γGlu-C18 diacid])DASPEELQRYYASLRHYYNWLTRQRY-NH2
SMILES: CC(C)CC(=O)N[C@@H](CCCNC(=N)N)C(=O)N1CCC[C@H]1C(=O)N[C@@H](CCC(=O)O)C(=O)N[C@@H](C)C(=O)N1CCC[C@H]1C(=O)N1CCC[C@H]1C(=O)N[C@@H](CCCCNC(=O)CC[C@H](NC(=O)COCCOCCNC(=O)CC[C@H](NC(=O)CCCCCCCCCCCCCCCCC(=O)O)C(=O)O)C(=O)O)C(=O)N[C@@H](CC(=O)O)C(=O)N[C@@H](C)C(=O)N[C@@H](CO)C(=O)N1CCC[C@H]1C(=O)N[C@@H](CCC(=O)O)C(=O)N[C@@H](CCC(=O)O)C(=O)N[C@@H](CC(C)C)C(=O)N[C@@H](CCC(N)=O)C(=O)N[C@@H](CCCNC(=N)N)C(=O)N[C@@H](Cc1ccc(O)cc1)C(=O)N[C@@H](Cc1ccc(O)cc1)C(=O)N[C@@H](C)C(=O)N[C@@H](CO)C(=O)N[C@@H](CC(C)C)C(=O)N[C@@H](CCCNC(=N)N)C(=O)N[C@@H](Cc1c[nH]cn1)C(=O)N[C@@H](Cc1ccc(O)cc1)C(=O)N[C@@H](Cc1ccc(O)cc1)C(=O)N[C@@H](CC(N)=O)C(=O)N[C@@H](Cc1c[nH]c2ccccc12)C(=O)N[C@@H](CC(C)C)C(=O)N[C@H](C(=O)N[C@@H](CCCNC(=N)N)C(=O)N[C@@H](CCC(N)=O)C(=O)N[C@@H](CCCNC(=N)N)C(=O)N[C@@H](Cc1ccc(O)cc1)C(N)=O)[C@@H](C)O
notes: also called Compound 56; 56
[3]
  Ki: 4410 nM
[4]
  Ratio of Y5/Y2 EC50 values: 193
[5]
  Ratio of Y4/Y2 EC50 values: 3060
[6]
  Ki: 1.4 nM
[7]
  Ki: 279 nM
[8]
  Y2 EC50, Actone functional potency assay: 0.54 nM

B3: N{alpha-4}-(3-Methylbutanoyl)-N{Epsilon-10}-[2-[2-[2-[[2-[2-[2-[[(4S)-4-carboxy-4-(17-carboxyheptadecanoylamino)butanoyl]amino]ethoxy]ethoxy]acetyl]-amino]ethox … (peptide)
peptide: Isovaleryl-RPEAPGK([AEEA-AEEA-γGlu-C18 diacid])DASPEELQRYYESLRHYYNWLTRQRY-NH2
SMILES: CC(C)CC(=O)N[C@@H](CCCNC(=N)N)C(=O)N1CCC[C@H]1C(=O)N[C@@H](CCC(=O)O)C(=O)N[C@@H](C)C(=O)N1CCC[C@H]1C(=O)NCC(=O)N[C@@H](CCCCNC(=O)COCCOCCNC(=O)COCCOCCNC(=O)CC[C@H](NC(=O)CCCCCCCCCCCCCCCCC(=O)O)C(=O)O)C(=O)N[C@@H](CC(=O)O)C(=O)N[C@@H](C)C(=O)N[C@@H](CO)C(=O)N1CCC[C@H]1C(=O)N[C@@H](CCC(=O)O)C(=O)N[C@@H](CCC(=O)O)C(=O)N[C@@H](CC(C)C)C(=O)N[C@@H](CCC(N)=O)C(=O)N[C@@H](CCCNC(=N)N)C(=O)N[C@@H](Cc1ccc(O)cc1)C(=O)N[C@@H](Cc1ccc(O)cc1)C(=O)N[C@@H](CCC(=O)O)C(=O)N[C@@H](CO)C(=O)N[C@@H](CC(C)C)C(=O)N[C@@H](CCCNC(=N)N)C(=O)N[C@@H](Cc1c[nH]cn1)C(=O)N[C@@H](Cc1ccc(O)cc1)C(=O)N[C@@H](Cc1ccc(O)cc1)C(=O)N[C@@H](CC(N)=O)C(=O)N[C@@H](Cc1c[nH]c2ccccc12)C(=O)N[C@@H](CC(C)C)C(=O)N[C@H](C(=O)N[C@@H](CCCNC(=N)N)C(=O)N[C@@H](CCC(N)=O)C(=O)N[C@@H](CCCNC(=N)N)C(=O)N[C@@H](Cc1ccc(O)cc1)C(N)=O)[C@@H](C)O
notes: also called Compound 51; 51
[4]
  Ratio of Y5/Y2 EC50 values: 50
[5]
  Ratio of Y4/Y2 EC50 values: > 4350
[2]
  Ki: 2400 nM
[6]
  Ki: 2.3 nM
[7]
  Ki: 116 nM
[8]
  Y2 EC50, Actone functional potency assay: 0.99 nM

## Isovaleryl-RPEAPPK([γGlu-AEEA-γGlu-C18 diacid])DASPEELQRYYESLRHYYNWLTRQRY-NH2 (also called Compound 54; 54)
[3]
  Ki: 5910 nM
[2]
  Ki: 2420 nM
[6]
  Ki: 3.1 nM
[7]
  Ki: 254 nM
[8]
  Y2 EC50, Actone functional potency assay: 1.6 nM
